Tested on: Escherichia coli TOP10
Assay: shrunken log2 fold change of peptide-encoding DNA abundance (4.5 h post-induction vs induction); higher = less antimicrobial activity (less host growth inhibition)
Details: time post-induction: 4.5 h; library: site-saturation at positions 5, 18, 19, 20
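Note: peptides expressed intracellularly from a pBAD plasmid library in pooled LB shake-flask culture, induced with 0.3% L-arabinose, DNA abundance read by NGS, three biological replicates, DESeq2 with apeglm shrinkage.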

Sequence	shrunken log2 fold change
RRIRKRPPRLPRPRPRPDWFPRP	0.178
RRIRKRPPRLPRPRPRPDWVPRP	0.0285
RRIRKRPPRLPRPRPRPDYCPRP	0.0953
RRIRKRPPRLPRPRPRPEAFPRP	0.434
RRIRKRPPRLPRPRPRPEAGPRP	1.17
RRIRKRPPRLPRPRPRPEDAPRP	0.054
RRIRKRPPRLPRPRPRPEENPRP	-0.00213
RRIRKRPPRLPRPRPRPEFIPRP	0.146
RRIRKRPPRLPRPRPRPEHKPRP	0.295
RRIRKRPPRLPRPRPRPEIYPRP	-0.00723
RRIRKRPPRLPRPRPRPEKLPRP	0.103
RRIRKRPPRLPRPRPRPEKPPRP	0.0899
RRIRKRPPRLPRPRPRPELRPRP	1.12
RRIRKRPPRLPRPRPRPEMWPRP	0.719
RRIRKRPPRLPRPRPRPEPPPRP	2.92
RRIRKRPPRLPRPRPRPEQDPRP	0.0646
RRIRKRPPRLPRPRPRPEQIPRP	0.0375
RRIRKRPPRLPRPRPRPEQMPRP	-0.000598
RRIRKRPPRLPRPRPRPERLPRP	0.209
RRIRKRPPRLPRPRPRPERPPRP	0.407
RRIRKRPPRLPRPRPRPERQPRP	0.0351
RRIRKRPPRLPRPRPRPERWPRP	1.15
RRIRKRPPRLPRPRPRPESCPRP	0.183
RRIRKRPPRLPRPRPRPESLPRP	-0.024
RRIRKRPPRLPRPRPRPESQPRP	0.967

Sequence	shrunken log2 fold change
RRIRKRPPRLPRPRPRPEVIPRP	-0.00256
RRIRKRPPRLPRPRPRPEWHPRP	0.125
RRIRKRPPRLPRPRPRPEWKPRP	0.0315
RRIRKRPPRLPRPRPRPFAQPRP	0.177
RRIRKRPPRLPRPRPRPFCIPRP	0.0646
RRIRKRPPRLPRPRPRPFDVPRP	0.0305
RRIRKRPPRLPRPRPRPFEMPRP	0.911
RRIRKRPPRLPRPRPRPFFKPRP	0.0178
RRIRKRPPRLPRPRPRPFGLPRP	-0.0305
RRIRKRPPRLPRPRPRPFHQPRP	-0.0483
RRIRKRPPRLPRPRPRPFIFPRP	0.085
RRIRKRPPRLPRPRPRPFIPPRP	-0.543
RRIRKRPPRLPRPRPRPFITPRP	-0.352
RRIRKRPPRLPRPRPRPFKMPRP	-0.231
RRIRKRPPRLPRPRPRPFLKPRP	0.0443
RRIRKRPPRLPRPRPRPFMDPRP	0.0834
RRIRKRPPRLPRPRPRPFNKPRP	-0.0789
RRIRKRPPRLPRPRPRPFSIPRP	-0.0639
RRIRKRPPRLPRPRPRPFTIPRP	0.0665
RRIRKRPPRLPRPRPRPFTSPRP	0.093
RRIRKRPPRLPRPRPRPFTWPRP	1.37
RRIRKRPPRLPRPRPRPGAVPRP	0.749
RRIRKRPPRLPRPRPRPGCMPRP	0.993
RRIRKRPPRLPRPRPRPGCVPRP	1.16
RRIRKRPPRLPRPRPRPGDSPRP	0.163

Sequence	shrunken log2 fold change
RRIRKRPPRLPRPRPRPGEWPRP	-0.0202
RRIRKRPPRLPRPRPRPGFCPRP	0.243
RRIRKRPPRLPRPRPRPGFYPRP	0.00129
RRIRKRPPRLPRPRPRPGGIPRP	0.569
RRIRKRPPRLPRPRPRPGGKPRP	0.123
RRIRKRPPRLPRPRPRPGIAPRP	1.46
RRIRKRPPRLPRPRPRPGIEPRP	1.34
RRIRKRPPRLPRPRPRPGIGPRP	0.39
RRIRKRPPRLPRPRPRPGKPPRP	0.115
RRIRKRPPRLPRPRPRPGKRPRP	0.285
RRIRKRPPRLPRPRPRPGMGPRP	0.606
RRIRKRPPRLPRPRPRPGMSPRP	0.361
RRIRKRPPRLPRPRPRPGNNPRP	-0.107
RRIRKRPPRLPRPRPRPGNRPRP	0.143
RRIRKRPPRLPRPRPRPGPDPRP	0.608
RRIRKRPPRLPRPRPRPGPHPRP	0.803
RRIRKRPPRLPRPRPRPGPTPRP	0.65
RRIRKRPPRLPRPRPRPGQAPRP	0.383
RRIRKRPPRLPRPRPRPGSTPRP	0.131
RRIRKRPPRLPRPRPRPGSVPRP	0.162
RRIRKRPPRLPRPRPRPGTSPRP	0.0376
RRIRKRPPRLPRPRPRPGVGPRP	0.818
RRIRKRPPRLPRPRPRPGVHPRP	0.195
RRIRKRPPRLPRPRPRPGWQPRP	0.347
RRIRKRPPRLPRPRPRPGYRPRP	0.129

Sequence	shrunken log2 fold change
RRIRKRPPRLPRPRPRPHDPPRP	0.282
RRIRKRPPRLPRPRPRPHEQPRP	-0.00968
RRIRKRPPRLPRPRPRPHEVPRP	-0.00968
RRIRKRPPRLPRPRPRPHFMPRP	-0.171
RRIRKRPPRLPRPRPRPHGHPRP	-0.248
RRIRKRPPRLPRPRPRPHHVPRP	-0.348
RRIRKRPPRLPRPRPRPHHYPRP	-0.737
RRIRKRPPRLPRPRPRPHILPRP	0.0523
RRIRKRPPRLPRPRPRPHMGPRP	-0.0935
RRIRKRPPRLPRPRPRPHMIPRP	-0.335
RRIRKRPPRLPRPRPRPHNFPRP	-0.0511
RRIRKRPPRLPRPRPRPHNLPRP	0.0314
RRIRKRPPRLPRPRPRPHPVPRP	0.185
RRIRKRPPRLPRPRPRPHQEPRP	0.0459
RRIRKRPPRLPRPRPRPHQQPRP	-0.0506
RRIRKRPPRLPRPRPRPHRGPRP	0.0594
RRIRKRPPRLPRPRPRPHSYPRP	0.0421
RRIRKRPPRLPRPRPRPHVLPRP	0.0607
RRIRKRPPRLPRPRPRPHVQPRP	-0.0829
RRIRKRPPRLPRPRPRPHYTPRP	-0.395
RRIRKRPPRLPRPRPRPIAQPRP	0.208
RRIRKRPPRLPRPRPRPIATPRP	-0.0616
RRIRKRPPRLPRPRPRPICDPRP	0.0999
RRIRKRPPRLPRPRPRPICGPRP	0.0699
RRIRKRPPRLPRPRPRPIFCPRP	0.387

Sequence	shrunken log2 fold change
RRIRKRPPRLPRPRPRPIFNPRP	-0.0554
RRIRKRPPRLPRPRPRPIGCPRP	-0.000243
RRIRKRPPRLPRPRPRPIGWPRP	0.7
RRIRKRPPRLPRPRPRPIKSPRP	3.22
RRIRKRPPRLPRPRPRPILGPRP	0.00783
RRIRKRPPRLPRPRPRPILVPRP	0.0199
RRIRKRPPRLPRPRPRPIMSPRP	-0.00757
RRIRKRPPRLPRPRPRPINKPRP	-0.328
RRIRKRPPRLPRPRPRPINMPRP	-0.196
RRIRKRPPRLPRPRPRPIPHPRP	0.359
RRIRKRPPRLPRPRPRPIPKPRP	0.499
RRIRKRPPRLPRPRPRPIPLPRP	0.0106
RRIRKRPPRLPRPRPRPIPQPRP	-0.184
RRIRKRPPRLPRPRPRPIQHPRP	-0.311
RRIRKRPPRLPRPRPRPIQQPRP	0.25
RRIRKRPPRLPRPRPRPIRMPRP	-0.0295
RRIRKRPPRLPRPRPRPISDPRP	-0.0768
RRIRKRPPRLPRPRPRPISFPRP	-0.1
RRIRKRPPRLPRPRPRPISHPRP	0.17
RRIRKRPPRLPRPRPRPISWPRP	-0.0574
RRIRKRPPRLPRPRPRPITEPRP	-0.147
RRIRKRPPRLPRPRPRPITRPRP	0.132
RRIRKRPPRLPRPRPRPITYPRP	-0.193
RRIRKRPPRLPRPRPRPIVRPRP	-0.0167
RRIRKRPPRLPRPRPRPIVYPRP	-0.0564

Sequence	shrunken log2 fold change
RRIRKRPPRLPRPRPRPKCWPRP	0.382
RRIRKRPPRLPRPRPRPKEIPRP	0.00103
RRIRKRPPRLPRPRPRPKEQPRP	-0.0322
RRIRKRPPRLPRPRPRPKEVPRP	0.0319
RRIRKRPPRLPRPRPRPKFGPRP	0.0786
RRIRKRPPRLPRPRPRPKFTPRP	0.355
RRIRKRPPRLPRPRPRPKFVPRP	-0.0367
RRIRKRPPRLPRPRPRPKHCPRP	-0.222
RRIRKRPPRLPRPRPRPKHLPRP	-0.334
RRIRKRPPRLPRPRPRPKHTPRP	0.281
RRIRKRPPRLPRPRPRPKIDPRP	0.545
RRIRKRPPRLPRPRPRPKKAPRP	0.0547
RRIRKRPPRLPRPRPRPKLIPRP	0.0851
RRIRKRPPRLPRPRPRPKLTPRP	0.104
RRIRKRPPRLPRPRPRPKLWPRP	0.656
RRIRKRPPRLPRPRPRPKLYPRP	0.164
RRIRKRPPRLPRPRPRPKMCPRP	-0.0224
RRIRKRPPRLPRPRPRPKMQPRP	0.00648
RRIRKRPPRLPRPRPRPKNGPRP	0.173
RRIRKRPPRLPRPRPRPKPGPRP	1.2
RRIRKRPPRLPRPRPRPKPVPRP	0.39
RRIRKRPPRLPRPRPRPKQGPRP	0.121
RRIRKRPPRLPRPRPRPKRIPRP	0.0395
RRIRKRPPRLPRPRPRPKRRPRP	0.0103
RRIRKRPPRLPRPRPRPKSPPRP	0.385

Reference: the supplement of paper PMC9112550, “Optimization of the antimicrobial peptide Bac7 by deep mutational scanning” (BMC Biology, 2022)
